Data on three molecules can be found in PMC11319651, “Distinct conformational states enable transglutaminase 2 to promote cancer cell survival versus cell death” (Communications Biology, 2024).

By IC50 is commonly meant the concentration needed to halve the response being measured. One may read the stoichiometry N as a count of units in the complex or per binding partner.

For one series, the target named is T1, Transglutaminase 2 (TG2) (Homo sapiens, UniProt P21980).
T1 construct: gene TGM2; N-terminal six-histidine tagged human TG2
T1 sequence (P21980 1-687): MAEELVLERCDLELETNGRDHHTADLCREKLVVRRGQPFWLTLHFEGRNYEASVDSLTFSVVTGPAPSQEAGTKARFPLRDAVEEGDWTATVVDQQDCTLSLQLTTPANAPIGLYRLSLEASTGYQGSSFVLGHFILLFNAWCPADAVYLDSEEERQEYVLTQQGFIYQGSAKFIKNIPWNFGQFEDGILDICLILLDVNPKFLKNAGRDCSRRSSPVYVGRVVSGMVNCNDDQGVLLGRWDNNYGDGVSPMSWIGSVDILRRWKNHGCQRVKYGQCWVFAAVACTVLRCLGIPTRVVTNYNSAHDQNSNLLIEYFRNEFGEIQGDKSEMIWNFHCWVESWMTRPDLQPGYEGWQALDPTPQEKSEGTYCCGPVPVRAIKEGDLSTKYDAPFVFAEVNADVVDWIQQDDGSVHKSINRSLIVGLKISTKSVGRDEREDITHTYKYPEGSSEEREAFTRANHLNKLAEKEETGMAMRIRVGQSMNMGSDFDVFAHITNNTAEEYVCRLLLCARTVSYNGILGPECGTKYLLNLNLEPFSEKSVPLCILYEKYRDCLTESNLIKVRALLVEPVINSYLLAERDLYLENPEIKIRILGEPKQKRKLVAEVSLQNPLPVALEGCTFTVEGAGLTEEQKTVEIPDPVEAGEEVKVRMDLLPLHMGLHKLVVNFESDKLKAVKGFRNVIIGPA
Kind of series: biochemical. On the set-up: inhibition of TG2 protein crosslinking activity, gel-based read-out. An excerpt:
(the LM-series, Fig. S6).

In series [1] the target is Transglutaminase 2 (TG2), wildtype, recombinant human (human) (UniProt P21980). Kind of series: SAXS; static SAXS, 25 µM (2 mg/mL) TG2 with 2 mM Ca2+ for 5 min, TG2 Storage Buffer; DAMMIF envelopes (P1, P2), CRYSOL fit to the open state dimer; deconvolution into monomer and dimer.
Series [2] shares this target. Kind of series: SAXS; time-resolved SAXS, Kenics chaotic advection mixer, TG2 1 mg/mL final, 2 mM Ca2+, 0-631 ms; deconvolution into closed state monomer and open state dimer.
Series [3] concerns the molecule itself. Kind of series: SAXS; static SAXS, TG2 R580K with GTP at concentrations greater than 1 mM (up to 5 mM); CRYSOL fit to the open state dimer (from crystal packing of PDB 2Q3Z).

`O=C1NC(=O)N(c2cccc(Cl)c2)C(=O)/C1=C/Nc1ccc(Cl)c(CN2C(=O)c3ccccc3C2=O)c1` [LM11]: the IC50 on Transglutaminase 2 (TG2) was 10 µM. As to “Transglutaminase 2 (TG2), wildtype, recombinant human (from UniProt P21980 1-687) (enzyme)”, in series [1], the percent dimer after five minutes with Ca2+ was 100% and the stoichiometry N stood at 2. The percent dimer at t = 0 ms in series [2] came to 61%.

B1: TG2 R580K mutant (enzyme, human)
chain: MAEELVLERCDLELETNGRDHHTADLCREKLVVRRGQPFWLTLHFEGRNYEASVDSLTFSVVTGPAPSQEAGTKARFPLRDAVEEGDWTATVVDQQDCTLSLQLTTPANAPIGLYRLSLEASTGYQGSSFVLGHFILLFNAWCPADAVYLDSEEERQEYVLTQQGFIYQGSAKFIKNIPWNFGQFEDGILDICLILLDVNPKFLKNAGRDCSRRSSPVYVGRVVSGMVNCNDDQGVLLGRWDNNYGDGVSPMSWIGSVDILRRWKNHGCQRVKYGQCWVFAAVACTVLRCLGIPTRVVTNYNSAHDQNSNLLIEYFRNEFGEIQGDKSEMIWNFHCWVESWMTRPDLQPGYEGWQALDPTPQEKSEGTYCCGPVPVRAIKEGDLSTKYDAPFVFAEVNADVVDWIQQDDGSVHKSINRSLIVGLKISTKSVGRDEREDITHTYKYPEGSSEEREAFTRANHLNKLAEKEETGMAMRIRVGQSMNMGSDFDVFAHITNNTAEEYVCRLLLCARTVSYNGILGPECGTKYLLNLNLEPFSEKSVPLCILYEKYRDCLTESNLIKVRALLVEPVINSYLLAEKDLYLENPEIKIRILGEPKQKRKLVAEVSLQNPLPVALEGCTFTVEGAGLTEEQKTVEIPDPVEAGEEVKVRMDLLPLHMGLHKLVVNFESDKLKAVKGFRNVIIGPA
notes: human transglutaminase 2 (TGM2), UniProt P21980, with the substitution R580K; The methods describe expression and purification only for TG2 in general; also called TG R580K
Take B1: in series [3], the “stoichiometry N” value was found to be 2.
